The text below walks through data of CN114591436A (BIOLOGICAL ISLAND LABORATORY; UNIV SCIENCE AND TECHNOLOGY …, dated 2022).

First the molecules themselves.
B1: 单抗PGI_2F1 (VHH)
VHH: QVQLVESGGGLVQTGDSLKLSCLASGRTFSSRAMGWFRQAPGKEREFVAAISTSGVLKYYAPSVKGRFTISRDNAKNTMYLEMNSPEPEDTAVYYCAANGPPFGAYWWPTAREYDAWGQGTQVTVSS
B2: 单抗PGI_1G9 (VHH)
VHH: QVQLVQSGGGSAHLGGSLRLSCAASGFIFSDYYMAWVRQAPGKEREWVSEINTSGRTYYADSVKGRFTISRDNAKNTLYLQMDSLKPEDTAVYYCYVHRSSIFTNREYWGQGTQVTVSS
B3: 单抗PGI_1H10 (VHH)
VHH: QVQLVQSGGGLVQAGGSLRLSCVVSGFNFSSFDRYTMSWVRQIPGKGLEWVSAINGGGIKTAYADSVKGRFTISRDNAKNTVYLQMNDLKPADTAVYYCTFTRWLVRGDYWGQGTQVTVSS

In this assay the target is T1, 胃蛋白酶原I (Pepsinogen I) (Homo sapiens (Human), UniProt P0DJD7 63-388, limits assumed).
T1 construct: also called PGI; PG I
T1 sequence (P0DJD7 63-388 limits assumed): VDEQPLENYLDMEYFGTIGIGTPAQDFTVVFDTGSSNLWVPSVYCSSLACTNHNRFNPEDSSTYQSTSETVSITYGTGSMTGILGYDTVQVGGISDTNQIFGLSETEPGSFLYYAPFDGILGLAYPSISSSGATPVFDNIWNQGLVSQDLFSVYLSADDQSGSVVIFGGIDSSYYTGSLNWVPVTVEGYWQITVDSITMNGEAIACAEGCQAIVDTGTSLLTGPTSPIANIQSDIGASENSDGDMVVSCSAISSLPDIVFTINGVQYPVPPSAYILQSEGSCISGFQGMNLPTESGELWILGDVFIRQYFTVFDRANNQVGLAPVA
The assay is described as follows: ELISA, VHH-pIII in bacterial culture supernatant incubated with PGI antigen; kd derived from binding strength. On the technique in general: An ELISA detects its analyte on a solid surface through an enzyme-linked reagent.
The term Kd denotes a measure of binding affinity in units of concentration. A low value points to higher affinity. B1 returned a Kd of 404 nM.

Regarding B2, the dissociation constant (Kd) came to 1030 nM.

Molecule B3 displayed a Kd of 123 nM.
